The values below come from publication PMC8544208 (Antibodies, 2021).

This assay addresses T1, C5b6 with bound C7 and C8, assembled on the SPR chip (human | , UniProt P01031 19-673; P01031 752-1676; P13671 22-934; P10643 23-843; P07357 31-584; …).
T1 construct: complement C5 beta chain, as part of C5b; complement C5 alpha' chain of C5b; complement component C6; complement component C7; complement component C8 alpha chain; complement component C8 beta chain; complement component C8 gamma chain; Formed by injecting C7 (4 nM) and then C8 (8 nM) over C5b6 captured on the anti-C5 tool antibody; source: assembled on the SPR chip from bought C5b6, C7 and C8 …
The assay is described as follows: SPR; MAC assembly assay, Biacore 8K, HBS-EP+; anti-C5 antibody amine coupled to a CM5 chip, C5 or C5b6 captured at 4 nM; C7, C8 and C9 flowed over in succession at 4, 8 and 50 nM, also with single components left out. Conditions: both partners purified. (Surface plasmon resonance follows binding to a sensor surface in real time, without labels.)

B1: Complement C9 (natural protein)
chain: not shown
notes: complement component C9; Unlabelled C9 as used in SPR; source: bought: Complement Technology (Comptech)
On to B1, for which the binding result is “binds”.
